Holding throughout (assay): In-vitro kinetic assay with purified recombinant GCase
What all share (format): biochemical
Holding throughout (settings): other: 30° C., citrate-phosphate buffer 150 mM, pH 5.4, 0.25% taurodeoxycholate, GCase 2.5 nM

Substrate in data set [1]: COc1cc(/N=N/c2ccc([N+](=O)[O-])cc2)c(OC)cc1/N=N/c1ccc(N(C)CCCC(=O)NCCc2ccc(O[C@@H]3O[C@H](COCCCCn4cc(CNC(=O)[C@H](CCCCN(C)C)NC(=O)c5ccc(-c6c7ccc(=[N+](C)C)cc-7oc7cc(N(C)C)ccc67)c(C(=O)O)c5)nn4)[C@@H](O)[C@H](O)[C@H]3O)cc2)cc1
The procedure: (§1) In-vitro kinetic assay for substrate 1. Continuous assays were performed at 30° C. in citrate-phosphate buffer (150 mM; pH 5.4) containing 0.25% taurodeoxycholate. The concentrations of substrate 1 used in assays were 0.39, 0.78, 1.56, 3.13 6.25, 12.5, 25 and 50 μM. Reactions were initiated by the addition of purified recombinant GCase (2.5 nM, R&D Systems) and the reaction was monitored continuously over 1200 seconds to determine the initial rate of change of fluorescence. Standard curves were constructed using BODIPY® Fl-acid using the same buffer conditions. […] Assays were carried out in triplicate.
as §1, with “Comparative In-vitro” for “In-vitro”, “substrate 3 and 9b.” for “substrate 1.”, “of substrates 3 and 9b” for “of substrate 1”, “were 0.156, 0.313, 0.625, 1.25, 2.5, 5, 10,” for “were 0.39, 0.78, 1.56, 3.13 6.25, 12.5, 25”, “and 20” for “and 50”, “using TAMRA and BODIPY-576” for “using BODIPY® Fl-acid”

Substrate in data set [2]: COc1cc(/N=N/c2ccc([N+](=O)[O-])cc2)c(OC)cc1/N=N/c1ccc(N(C)CCCC(=O)NCCCO[C@@H]2O[C@H](COCc3cn(CCNC(=O)CCC4=[N+]5C(=Cc6ccc(-c7ccc[nH]7)n6[B-]5(F)F)C=C4)nn3)[C@@H](O)[C@H](O)[C@H]2O)cc1
How it is done: as §1
as §1, with “Comparative In-vitro” for “In-vitro”, “substrate 3 and 9b.” for “substrate 1.”, “of substrates 3 and 9b” for “of substrate 1”, “were 0.156, 0.313, 0.625, 1.25, 2.5, 5, 10,” for “were 0.39, 0.78, 1.56, 3.13 6.25, 12.5, 25”, “and 20” for “and 50”, “using TAMRA and BODIPY-576” for “using BODIPY® Fl-acid”

Substrate in data set [3]: COc1cc(/N=N/c2ccc(C)cc2[N+](=O)[O-])c(C)cc1/N=N/c1ccc(N(C)CCCC(=O)NCCCO[C@@H]2O[C@H](COCc3cn(CCCNC(=O)[C@H](CCCCN(C)C)NC(=O)CCC4=[N+]5C(=Cc6c(C)cc(C)n6[B-]5(F)F)C=C4)nn3)[C@@H](O)[C@H](O)[C@H]2O)cc1
The procedure:
as §1
as §1, with “Comparative In-vitro” for “In-vitro”, “substrate 3 and 9b.” for “substrate 1.”, “of substrates 3 and 9b” for “of substrate 1”, “were 0.156, 0.313, 0.625, 1.25, 2.5, 5, 10,” for “were 0.39, 0.78, 1.56, 3.13 6.25, 12.5, 25”, “and 20” for “and 50”, “using TAMRA and BODIPY-576” for “using BODIPY® Fl-acid”

B1: purified recombinant GCase (Homo sapiens) (protein)
chain: ARPCIPKSFGYSSVVCVCNATYCDSFDPPTFPALGTFSRYESTRSGRRMELSMGPIQANHTGTGLLLTLQPEQKFQKVKGFGGAMTDAAALNILALSPPAQNLLLKSYFSEEGIGYNIIRVPMASCDFSIRTYTYADTPDDFQLHNFSLPEEDTKLKIPLIHRALQLAQRPVSLLASPWTSPTWLKTNGAVNGKGSLKGQPGDIYHQTWARYFVKFLDAYAEHKLQFWAVTAENEPSAGLLSGYPFQCLGFTPEHQRDFIARDLGPTLANSTHHNVRLLMLDDQRLLLPHWAKVVLTDPEAAKYVHGIAVHWYLDFLAPAKATLGETHRLFPNTMLFASEACVGSKFWEQSVRLGSWDRGMQYSHSIITNLLYHVVGWTDWNLALNPEGGPNWVRNFVDSPIIVDITKDTFYKQPMFYHLGHFSKFIPEGSQRVGLVASQKNDLDAVALMHPDGSAVVVVLNRSSKDVPLTIKDPAVGFLETISPGYSIHTYLWRRQ
notes: purchased R&D Systems
As to B1, the specificity constant (kcat/Km) in data set [1] stood at 22670 M⁻¹ s⁻¹; in data set [2], 4350 M⁻¹ s⁻¹; in data set [3], 1300 ± 33 M⁻¹ s⁻¹.

As usually defined, the kcat/Km is the turnover number divided by the Michaelis constant.

The record behind these values is patent publication US20250130225A1, “SUBSTRATES FOR IMAGING GLUCOCEREBROSIDASE ACTIVITY” (SIMON FRASER UNIVERSITY, priority 2021, published 2025).
